In US20050171016A1:

Target: CD36 receptor on human dermal microvascular endothelial cells (HDMEC) (human) (UniProt P16671)
Assay: cell-based or functional assay

UniProt P16671, sequence (P16671 2-472): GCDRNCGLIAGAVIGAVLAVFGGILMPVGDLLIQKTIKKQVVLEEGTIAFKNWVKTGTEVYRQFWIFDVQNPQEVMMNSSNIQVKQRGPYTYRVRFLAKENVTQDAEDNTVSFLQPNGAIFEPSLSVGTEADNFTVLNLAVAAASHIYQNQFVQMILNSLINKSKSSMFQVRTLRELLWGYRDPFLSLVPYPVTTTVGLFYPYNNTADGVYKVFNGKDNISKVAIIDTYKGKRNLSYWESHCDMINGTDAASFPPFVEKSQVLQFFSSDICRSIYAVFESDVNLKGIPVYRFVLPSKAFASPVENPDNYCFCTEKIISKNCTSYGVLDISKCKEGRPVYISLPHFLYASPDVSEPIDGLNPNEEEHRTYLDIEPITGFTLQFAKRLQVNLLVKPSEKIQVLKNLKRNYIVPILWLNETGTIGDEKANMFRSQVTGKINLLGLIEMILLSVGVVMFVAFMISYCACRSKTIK

| inhibition of HDMEC migration (Transwell, 10 ug/ml TSP-1) [%] | inhibition of HDMEC migration in the presence of 10 ug/ml anti-CD36 antibody (clone FA6-152) [%] | inhibition of HDMEC migration (Transwell, TSP-2 conditioned medium) [%] | Substance |
| --- | --- | --- | --- |
| 54 | 20.8 | – | human thrombospondin-1 (TSP-1) (from UniProt P07996 19-1170) |
| – | 36.1 | 54.2 | mouse thrombospondin-2 (TSP-2) (from UniProt Q03350 19-1172) |
